Results taken from US20200392227A1 (LYVGEN BIOPHARMA, published 2020).
Where two headings read alike, the source gives them in different places.

Legend:
Assay in all cases: BLI
[1] = target: T1, human FcRIIA protein (MednaBio, E1033) (human, UniProt P12318 34-218, limits assumed)
T1 construct: Bought; also called FcγRIIA
T1 sequence (looked up): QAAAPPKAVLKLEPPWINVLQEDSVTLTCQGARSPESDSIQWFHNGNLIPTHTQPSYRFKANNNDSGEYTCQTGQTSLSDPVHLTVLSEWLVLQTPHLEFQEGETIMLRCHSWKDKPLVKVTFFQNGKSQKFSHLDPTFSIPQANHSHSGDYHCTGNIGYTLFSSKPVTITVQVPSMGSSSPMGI
Summary of the method: (§1)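 Binding was measured by biolayer interferometry on an Octet Red96 System, with commercial human Fc receptor proteins loaded at 20 μg/mL onto anti-penta-HIS biosensors. Sensors were dipped into an 8-point 1:3 dilution series of test IgG starting at 300 nM in PBS with 0.1% BSA and 0.02% Tween-20. Fcγ receptor assays ran at pH 7.2 and FcRn assays at pH 6. Kd, kon and koff came from global fitting to a 1:1 binding model.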

[2] = target: T2, human FcRIIIA-V158 protein (MednaBio, E1035) (human, UniProt P08637 17-208)
T2 construct: Bought; also called FcγRIIIA(V); FcgRIIIA(V)
T2 sequence (P08637 17-208 F176V): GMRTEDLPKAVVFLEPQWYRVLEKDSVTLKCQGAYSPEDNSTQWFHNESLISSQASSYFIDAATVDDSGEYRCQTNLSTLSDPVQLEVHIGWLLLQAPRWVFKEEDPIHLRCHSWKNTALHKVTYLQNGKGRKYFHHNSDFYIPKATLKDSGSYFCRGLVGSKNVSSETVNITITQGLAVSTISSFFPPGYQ

[3] = target: T3, human FcRIIB/C protein (MednaBio, E1034) (human, UniProt P31994 43-217, limits assumed)
T3 construct: Bought as FcRIIB/C; also called FcγRIIB; CD32B
T3 sequence (looked up): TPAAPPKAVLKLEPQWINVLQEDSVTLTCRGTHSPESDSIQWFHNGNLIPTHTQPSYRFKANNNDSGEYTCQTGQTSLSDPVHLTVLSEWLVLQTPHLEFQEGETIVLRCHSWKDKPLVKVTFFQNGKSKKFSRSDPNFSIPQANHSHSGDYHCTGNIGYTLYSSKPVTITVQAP

[4] = target: T4, human FcRn protein (MednaBio, E1032) (human, UniProt P55899 24-297; P61769 21-119)
T4 construct: Bought; assays at pH 6
T4 sequence (P55899 24-297 limits assumed, form in doubt, chain 1 of 2): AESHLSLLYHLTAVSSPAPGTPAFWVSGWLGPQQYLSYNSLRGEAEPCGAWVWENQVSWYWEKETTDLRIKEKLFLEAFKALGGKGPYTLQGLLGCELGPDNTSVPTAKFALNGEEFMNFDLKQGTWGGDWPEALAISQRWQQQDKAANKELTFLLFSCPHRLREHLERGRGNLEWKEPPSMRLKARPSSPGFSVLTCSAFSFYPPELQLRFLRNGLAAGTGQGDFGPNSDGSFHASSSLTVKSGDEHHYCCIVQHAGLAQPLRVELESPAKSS
T4 sequence (P61769 21-119 limits assumed, form in doubt, chain 2 of 2): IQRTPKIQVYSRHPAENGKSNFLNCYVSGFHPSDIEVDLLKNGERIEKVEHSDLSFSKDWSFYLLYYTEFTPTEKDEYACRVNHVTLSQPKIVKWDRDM

[5] = target: T5, human FcRI protein (MednaBio, E1031) (human, UniProt P12314 16-288, limits assumed)
T5 construct: Bought; loaded on anti-penta-HIS biosensors; also called FcγRI
T5 sequence (P12314 16-288 limits assumed): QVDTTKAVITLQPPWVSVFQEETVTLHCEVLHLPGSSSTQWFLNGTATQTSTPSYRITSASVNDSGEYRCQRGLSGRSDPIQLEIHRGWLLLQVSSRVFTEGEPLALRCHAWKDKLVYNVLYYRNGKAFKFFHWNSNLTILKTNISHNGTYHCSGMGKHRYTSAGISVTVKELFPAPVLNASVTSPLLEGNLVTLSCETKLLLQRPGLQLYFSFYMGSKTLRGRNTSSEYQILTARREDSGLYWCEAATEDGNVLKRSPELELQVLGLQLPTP

[6] = target: T1, human FcRIIA protein (MednaBio, E1033); remark: listed apart in the source
[7] = target: T2, human FcRIIIA-V158 protein (MednaBio, …); remark: listed apart in the source
Summary of the method: as §1

[8] = target: T3, human FcRIIB/C protein (MednaBio, E1034); remark: listed apart in the source
Summary of the method: as §1

[9] = target: T4, human FcRn protein (MednaBio, E1032); remark: listed apart in the source
Summary of the method: as §1

[10] = target: T5, human FcRI protein (MednaBio, E1031); remark: listed apart in the source
Summary of the method: as §1

[11] = target: T1, human FcRIIA protein (MednaBio, E1033); remark: listed apart in the source
Summary of the method: as §1

[12] = target: T2, human FcRIIIA-V158 protein (MednaBio, …); remark: listed apart in the source
Summary of the method: as §1

[13] = target: T3, human FcRIIB/C protein (MednaBio, E1034); remark: listed apart in the source
Summary of the method: as §1

[14] = target: T4, human FcRn protein (MednaBio, E1032); remark: listed apart in the source
Summary of the method: as §1

[15] = target: T5, human FcRI protein (MednaBio, E1031); remark: listed apart in the source
Summary of the method: as §1

[16] = target: T1, human FcRIIA protein (MednaBio, E1033); remark: listed apart in the source
Summary of the method: as §1

B1: wild-type human IgG1 control (antibody)
heavy: not shown
light: SYELTQPPSVSVSPGQTASITCSGDNIGDQYAHWYQQKPGQSPVLVIYQDKNRPSGIPERFSGSNSGNTATLTISGTQAMDEADYYCATYTGFGSLAVFGGGTKLTVLGQPKAAPSVTLFPPSSEELQANKATLVCLISDFYPGAVTVAWKADSSPVKAGVETTTPSKQSNNKYAASSYLSLTPEQWKSHRSYSCQVTHEGSTVEKTVAPTECS
notes: Control IgG
- Kd [1]: 56 nM
- koff [1]: 0.032 s⁻¹
- kon [1]: 570000 M⁻¹ s⁻¹
- Kd [2]: 60 nM
- koff [2]: 0.027 s⁻¹
- kon [2]: 450000 M⁻¹ s⁻¹
- Kd [3]: 130 nM
- koff [3]: 0.016 s⁻¹
- kon [3]: 120000 M⁻¹ s⁻¹
- Kd [4]: 16 nM
- koff [4]: 0.008 s⁻¹
- kon [4]: 480000 M⁻¹ s⁻¹
- Kd [5]: 5.6 nM
- koff [5]: 0.0012 s⁻¹
- kon [5]: 220000 M⁻¹ s⁻¹
- Kd [6]: 56 nM
- koff [6]: 0.032 s⁻¹
- kon [6]: 570000 M⁻¹ s⁻¹
- Kd [7]: 60 nM
- koff [7]: 0.027 s⁻¹
- kon [7]: 450000 M⁻¹ s⁻¹
- Kd [8]: 130 nM
- koff [8]: 0.016 s⁻¹
- kon [8]: 120000 M⁻¹ s⁻¹
- Kd [9]: 16 nM
- koff [9]: 0.008 s⁻¹
- kon [9]: 480000 M⁻¹ s⁻¹
- Kd [10]: 5.6 nM
- koff [10]: 0.0012 s⁻¹
- kon [10]: 220000 M⁻¹ s⁻¹
- Kd [11]: 56 nM
- koff [11]: 0.032 s⁻¹
- kon [11]: 570000 M⁻¹ s⁻¹
- Kd [12]: 60 nM
- koff [12]: 0.027 s⁻¹
- kon [12]: 450000 M⁻¹ s⁻¹
- Kd [13]: 130 nM
- koff [13]: 0.016 s⁻¹
- kon [13]: 120000 M⁻¹ s⁻¹
- Kd [14]: 16 nM
- koff [14]: 0.008 s⁻¹
- kon [14]: 480000 M⁻¹ s⁻¹
- Kd [15]: 5.6 nM
- koff [15]: 0.0012 s⁻¹
- kon [15]: 220000 M⁻¹ s⁻¹
- Kd [16]: 56 nM
- koff [16]: 0.032 s⁻¹
- kon [16]: 570000 M⁻¹ s⁻¹

B2: wild-type human IgG4 control (antibody)
heavy: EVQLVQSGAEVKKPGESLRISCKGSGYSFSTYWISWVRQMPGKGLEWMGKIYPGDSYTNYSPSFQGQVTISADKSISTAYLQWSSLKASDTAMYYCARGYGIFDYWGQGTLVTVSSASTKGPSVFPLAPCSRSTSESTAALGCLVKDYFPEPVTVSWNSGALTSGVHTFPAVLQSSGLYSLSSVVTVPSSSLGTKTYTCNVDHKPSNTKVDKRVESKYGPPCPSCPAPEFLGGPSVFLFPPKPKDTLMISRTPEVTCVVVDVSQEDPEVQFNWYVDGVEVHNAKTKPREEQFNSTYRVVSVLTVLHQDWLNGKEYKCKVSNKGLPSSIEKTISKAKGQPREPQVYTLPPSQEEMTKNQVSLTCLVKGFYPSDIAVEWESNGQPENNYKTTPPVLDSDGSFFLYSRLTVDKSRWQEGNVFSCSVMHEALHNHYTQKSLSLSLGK
light: B1 light
notes: Control IgG
- Kd [1]: 400 nM
- koff [1]: 0.055 s⁻¹
- kon [1]: 140000 M⁻¹ s⁻¹
- Kd [2]: 550 nM
- koff [2]: 0.092 s⁻¹
- kon [2]: 170000 M⁻¹ s⁻¹
- Kd [3]: 400 nM
- koff [3]: 0.05 s⁻¹
- kon [3]: 140000 M⁻¹ s⁻¹
- Kd [4]: 18 nM
- koff [4]: 0.012 s⁻¹
- kon [4]: 640000 M⁻¹ s⁻¹
- Kd [5]: 4.8 nM
- koff [5]: 0.0017 s⁻¹
- kon [5]: 360000 M⁻¹ s⁻¹
- Kd [6]: 400 nM
- koff [6]: 0.055 s⁻¹
- kon [6]: 140000 M⁻¹ s⁻¹
- Kd [7]: 550 nM
- koff [7]: 0.092 s⁻¹
- kon [7]: 170000 M⁻¹ s⁻¹
- Kd [8]: 400 nM
- koff [8]: 0.05 s⁻¹
- kon [8]: 140000 M⁻¹ s⁻¹
- Kd [9]: 18 nM
- koff [9]: 0.012 s⁻¹
- kon [9]: 640000 M⁻¹ s⁻¹
- Kd [10]: 4.8 nM
- koff [10]: 0.0017 s⁻¹
- kon [10]: 360000 M⁻¹ s⁻¹
- Kd [11]: 400 nM
- koff [11]: 0.055 s⁻¹
- kon [11]: 140000 M⁻¹ s⁻¹
- Kd [12]: 550 nM
- koff [12]: 0.092 s⁻¹
- kon [12]: 170000 M⁻¹ s⁻¹
- Kd [13]: 400 nM
- koff [13]: 0.05 s⁻¹
- kon [13]: 140000 M⁻¹ s⁻¹
- Kd [14]: 18 nM
- koff [14]: 0.012 s⁻¹
- kon [14]: 640000 M⁻¹ s⁻¹
- Kd [15]: 4.8 nM
- koff [15]: 0.0017 s⁻¹
- kon [15]: 360000 M⁻¹ s⁻¹
- Kd [16]: 400 nM
- koff [16]: 0.055 s⁻¹
- kon [16]: 140000 M⁻¹ s⁻¹
